Assay [1] has as its target T1, human inducible phospho-fructokinase bisphosphatase isoform 3, PFKFB3 (human), Q16875.
The target in assay [2] is T1, human inducible phospho-fructokinase …. As to the kind of experiment: MST; compound in MST buffer mixed 1:1 with 100 nM RED-NHS labeled recombinant PFKFB3, incubated 20 min at room temperature; Nanotemper.

T1 sequence (Q16875 whole entry, canonical isoform): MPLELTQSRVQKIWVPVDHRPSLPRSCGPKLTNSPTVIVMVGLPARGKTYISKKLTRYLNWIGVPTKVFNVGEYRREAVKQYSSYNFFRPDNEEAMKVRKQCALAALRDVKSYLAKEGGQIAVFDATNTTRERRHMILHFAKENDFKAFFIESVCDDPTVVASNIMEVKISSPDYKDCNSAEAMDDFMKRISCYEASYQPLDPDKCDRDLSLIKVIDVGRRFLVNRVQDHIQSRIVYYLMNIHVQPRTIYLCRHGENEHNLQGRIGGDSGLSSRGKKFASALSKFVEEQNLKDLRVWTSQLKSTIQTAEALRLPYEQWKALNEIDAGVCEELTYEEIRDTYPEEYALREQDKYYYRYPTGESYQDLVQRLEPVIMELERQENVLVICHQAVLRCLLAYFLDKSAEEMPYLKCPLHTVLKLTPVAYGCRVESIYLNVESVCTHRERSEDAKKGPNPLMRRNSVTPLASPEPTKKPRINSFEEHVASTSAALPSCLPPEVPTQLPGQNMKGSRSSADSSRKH

In the case of YSGFLT (modifications not checked) [compound 4], the PFKFB3 bisphosphatase velocity (LC-MS/MS of F6P) with compound 4, substrate F2,6BP 20-50 µM; not significantly different from enzyme alone (nmol/min of F6P per nmol of enzyme) in assay [1] is 0.14. Moreover, in assay [2], the Kd (usually the constant that tells how readily two partners part at equilibrium) turned out to be 18 µM.

SFLLR (modifications not checked) [compound 5]: the Kd in assay [2] came out at 44 µM.

The record behind these values is paper PMC6937325, “Tuning PFKFB3 Bisphosphatase Activity Through Allosteric Interference” (Scientific Reports, 2019).
